One assay relates to HSA–Aβ interaction. Further details: method as in 5 sources, ref [12] = [12]; PMID 30685090; doi:10.1016/j.bbrc.2019.01.081; 12. Litus E.A. Kazakov A.S. Sokolov A.S. Nemashkalova E.L. Galushko E.I. Dzhus U.F. Marchenkov V.V. Galzitskaya O.V. Permyakov E.A. Permyakov S.E. The binding of monomeric amyloid beta peptide to seru ||| ref [12],[13] = [12]; PMID 30685090; doi:10.1016/j.bbrc.2019.01.081; 12. Litus E.A. Kazakov A.S. Sokolov A.S. Nemashkalova E.L. Galushko E.I. Dzhus U.F. Marchenkov V.V. Galzitskaya O.V. Permyakov E.A. Permyakov S.E. The binding of monomeric amyloid beta peptide to seru || [13]; PMID 34072751; doi:10.3390/ijms22115896; 13. Litus E.A. Kazakov A.S. Deryusheva E.I. Nemashkalova E.L. Shevelyova M.P. Nazipova A.A. Permyakova M.E. Raznikova E.V. Uversky V.N. Permyakov S.E. Serotonin promotes serum albumin interaction with ||| ref [7] = [7]; PMID 10347147; doi:10.1074/jbc.274.23.15990; 7. Bohrmann B. Tjernberg L. Kuner P. Poli S. Levet-Trafit B. Naslund J. Richards G. Huber W. Dobeli H. Nordstedt C. Endogenous proteins controlling amyloid beta-peptide polymerization. Possible implic ||| ref [14] = [14]; PMID 29409811; doi:10.1016/j.jmb.2018.01.008; 14. Bode D.C. Stanyon H.F. Hirani T. Baker M.D. Nield J. Viles J.H. Serum albumin’s protective inhibition of amyloid-β fiber formation is suppressed by cholesterol, fatty acids and warfarin J. Mol. Bi ||| ref [13] = [13]; PMID 34072751; doi:10.3390/ijms22115896; 13. Litus E.A. Kazakov A.S. Deryusheva E.I. Nemashkalova E.L. Shevelyova M.P. Nazipova A.A. Permyakova M.E. Raznikova E.V. Uversky V.N. Permyakov S.E. Serotonin promotes serum albumin interaction with. Particulars: cited from earlier work; for effect on HSA affinity toward monomeric Aβ: ref [12],[13]; for effect of HSA ligand on HSA–Aβ interaction: ref [14].

In assay [1] the target is A21G mutant of amyloid-β peptide 1-40, Flemish variant of Aβ40 (human). Kind of assay: SPR; as a1, but with 100 uM ibuprofen (IBU) in the running buffer: Aβ immobilised by amine coupling and washed to monomer; analyte 0.5-8 uM HSA; 25 °C; 20 mM Tris-HCl, 140 mM NaCl, […] KCl, 1 mM MgCl2, […] CaCl2, pH 7.4; heterogeneous ligand model (two ligand populations L1 and L2). In general terms: In SPR one partner is held on a chip, and binding of the other changes the refractive index at the surface.

Assay [2] has the same target. Nature of the assay: SPR; Aβ immobilised by amine coupling on a ProteOn GLH chip (6000-9000 RU), non-covalently bound Aβ washed off (2% SDS, 100 mM HCl, 20 mM EDTA pH 8.0 with 1% SDS) to leave monomeric Aβ; analyte 0.5-8 uM HSA; no IBU; 25 °C; 20 mM Tris-HCl, 140 mM NaCl, […] KCl, 1 mM MgCl2, […] CaCl2, pH 7.4; heterogeneous ligand model (two ligand populations L1 and L2).

“Also recorded” adds a separate entry of the source.

In the case of `CCCCC/C=C\C/C=C\C/C=C\C/C=C\CCCC(=O)O` [arachidonic acid, arachidonic], the “effect on HSA affinity toward monomeric Aβ” value in the assay with HSA–Aβ interaction was “enhance HSA affinity toward monomeric Aβ”.
On to `CC(C)CCC[C@@H](C)[C@H]1CC[C@H]2[C@@H]3CC=C4C[C@@H](O)CC[C@]4(C)[C@H]3CC[C@]12C` [cholesterol], for which the “effect of HSA ligand on HSA–Aβ interaction” value in the assay with HSA–Aβ interaction is “exert the opposite effect; also recorded: act in the opposite direction”.
Regarding `CCCCC/C=C\C/C=C\CCCCCCCC(=O)O` [linoleic acid], the “effect on HSA affinity toward monomeric Aβ” value with HSA–Aβ interaction is listed as “enhance HSA affinity toward monomeric Aβ”.
`NCCc1c[nH]c2ccc(O)cc12` [serotonin]: the “effect on HSA affinity toward monomeric Aβ” value in the assay with HSA–Aβ interaction is “enhance HSA affinity toward monomeric Aβ”.
Regarding `N[C@@H](Cc1c[nH]c2ccccc12)C(=O)O` [tryptophan], the “effect on the HSA–Aβ40/Aβ42 equilibrium” value in the assay with HSA–Aβ interaction (ref [13]) was “does not affect the HSA–Aβ40/Aβ42 equilibrium”.
Consider `CC(=O)CC(c1ccccc1)c1c(O)c2ccccc2oc1=O` (stereo not shown) [warfarin], for which, in the assay with HSA–Aβ interaction, the “effect of HSA ligand on HSA–Aβ interaction” value is “exert the opposite effect; also recorded: act in the opposite direction”.
Take “human serum albumin (from UniProt P02768 25-609) (natural protein)”: in assay [1], the Kd1 (ligand population L1) was 8.2 pM, the ka1 (ligand population L1) was determined as 25000 M⁻¹ s⁻¹, the kd1 (ligand population L1) is 2e-07 s⁻¹ and the kd2 (ligand population L2) stood at 1.03e-06 s⁻¹. In assay [2], this compound yielded a Kd2 (ligand population L2) of 670 pM, a ka1 (ligand population L1) of 30000 M⁻¹ s⁻¹ and a kd2 (ligand population L2) of 1.8e-06 s⁻¹.

These data come from PMC9181795, “Ibuprofen Favors Binding of Amyloid-β Peptide to Its Depot, Serum Albumin” (International Journal of Molecular Sciences, 2022).
